# Data from publication PMC9687920, “Effects of Boric Acid and Storage Temperature on the Analysis of Microalbumin Using Aptasensor-Based Fluorescent Detection”.
# Biological target: human serum albumin (HSA) (Homo sapiens, UniProt P02768 25-609)
# Test: graphene oxide fluorescence recovery (competition with GO quencher); PBS; PBS or PBS with 2% (w/v) boric acid, ambient temperature, 5 mg/L GO stock, 30 min with HSA in the dark; pH not given
# Conditions: protein: commercial; label: 5'-Cy5
# Chain of human serum albumin (HSA) (P02768 25-609): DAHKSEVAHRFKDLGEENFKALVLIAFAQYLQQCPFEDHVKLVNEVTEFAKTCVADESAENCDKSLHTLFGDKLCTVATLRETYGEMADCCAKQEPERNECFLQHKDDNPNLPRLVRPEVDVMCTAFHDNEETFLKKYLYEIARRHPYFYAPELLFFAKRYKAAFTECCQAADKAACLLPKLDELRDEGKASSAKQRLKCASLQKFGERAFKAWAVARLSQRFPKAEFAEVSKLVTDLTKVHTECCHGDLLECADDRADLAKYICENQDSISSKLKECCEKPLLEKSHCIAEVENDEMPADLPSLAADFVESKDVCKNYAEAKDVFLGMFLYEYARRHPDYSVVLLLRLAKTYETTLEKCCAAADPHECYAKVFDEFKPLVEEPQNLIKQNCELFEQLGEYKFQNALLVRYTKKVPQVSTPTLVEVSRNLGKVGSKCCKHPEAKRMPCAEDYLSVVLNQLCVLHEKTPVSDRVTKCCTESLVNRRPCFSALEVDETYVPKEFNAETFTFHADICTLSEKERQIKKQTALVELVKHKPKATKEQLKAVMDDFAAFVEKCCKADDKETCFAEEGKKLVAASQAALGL
binder,measurement,value
H8 aptamer (ssDNA) DNA: ATACCAGCTTATTCAATTCCCCCGGCTTTGGTTTAGAGGTAGTTGCTCATTACTTGTACGCTCCGGATGAGATAGTAAGTGCAATCT,binding result,binds
